Measurements reported in the Immune Epitope Database (IEDB).

Assays:
[1] = target: HLA-B*15:01; assay: IEDB peptide-MHC binding, purified MHC/competitive/radioactivity; filed as Kd, often an IC50 or EC50 that approximates it; ≥ and ≤ were set here for values at or beyond the usual limits of such assays
[2] = target: HLA-A*02:02; assay: as above
[3] = target: HLA-A*02:03; assay: as above
[4] = target: HLA-A*02:06; assay: as above
[5] = target: HLA-A*30:02; assay: as above
[6] = target: HLA-B*07:02; assay: IEDB peptide-MHC binding, purified MHC/direct/fluorescence; filed as Kd, often an IC50 or EC50 that approximates it; ≥ and ≤ were set here for values at or beyond the usual limits of such assays
[7] = target: HLA-A*02:01; assay: IEDB peptide-MHC binding, purified MHC/competitive/fluorescence; ≥ and ≤ were set here for values at or beyond the usual limits of such assays; conditions: source organism: Sudan ebolavirus
[8] = target: HLA-A*01:01; assay: IEDB peptide-MHC binding, purified MHC/competitive/radioactivity; filed as Kd, often an IC50 or EC50 that approximates it; ≥ and ≤ were set here for values at or beyond the usual limits of such assays; conditions: source organism: Dengue virus 4 Dominica/814669/1981
[9] = target: HLA-B*46:01; assay: IEDB peptide-MHC binding, purified MHC/direct/fluorescence; filed as Kd, often an IC50 or EC50 that approximates it; ≥ and ≤ were set here for values at or beyond the usual limits of such assays; conditions: source organism: Yellow fever virus
[10] = target: HLA-A*02:01; assay: as above
[11] = target: HLA-A*69:01; assay: as above; conditions: source organism: Amur virus
[12] = target: HLA-A*26:01; assay: IEDB peptide-MHC binding, purified MHC/competitive/radioactivity; filed as Kd, often an IC50 or EC50 that approximates it; ≥ and ≤ were set here for values at or beyond the usual limits of such assays
[13] = target: HLA-B*51:01; assay: as above
[14] = target: HLA-B*53:01; assay: as above; conditions: source organism: Dengue virus 4 Philippines/H241/1956
[15] = target: HLA-A*24:02; assay: as above
[16] = target: HLA-B*15:01; assay: IEDB peptide-MHC binding, purified MHC/direct/fluorescence; filed as Kd, often an IC50 or EC50 that approximates it; ≥ and ≤ were set here for values at or beyond the usual limits of such assays; conditions: source organism: Salmonella enterica subsp. enterica serovar Typhimurium
[17] = target: HLA-B*58:01; assay: as above; conditions: source organism: Salmonella enterica subsp. enterica serovar Typhimurium
[18] = source organism: Dengue virus 3 Martinique/1243/1999
[19] = source organism: Vaccinia virus WR
[20] = source organism: Dengue virus 1 Singapore/S275/1990
[21] = source organism: Dengue virus 2 Jamaica/1409/1983
[22] = source organism: Dengue virus 2 Peru/IQT2913/1996
[23] = source organism: Mammarenavirus guanaritoense
[24] = source organism: Dengue virus 1 Brazil/97-11/1997
[25] = source organism: Vaccinia virus Copenhagen
[26] = source organism: SARS coronavirus Tor2
[27] = source organism: Salmonella enterica subsp. enterica serovar Typhimurium

Sequence	Kd [2, 19] [nM]	Kd [3, 19] [nM]	Kd [4, 19] [nM]	also measured
QQMDPEHRQL	–	–	–	Kd [1, 18]: 118 nM
QVKDNIISRT	17800	421	≥ 34200	–
RFKGEDGCWY	–	–	–	Kd [5, 20]: 8.19 nM
RIKSVLDII	111	17.6	2080	–
RLPSETFPNV	173	14.1	0.584	–
RPKSNIVLL	–	–	–	Kd ([6]; source organism: Homo sapiens): 200 nM
RPPIFIRRL	–	–	–	Kd ([6]; source organism: Human herpesvirus 4 strain B95-8): 356 nM
RSGVPPKVV	–	–	–	IC50 [7]: ≥ 80200 nM
SAEDNYLAKL	≥ 70000	≥ 70400	≥ 69800	–
SARALKAYFT	≥ 21600	7810	≥ 25700	–
SASDMQKFTI	10800	1220	4250	–
SIGKMFESTY	–	–	–	Kd ([5]; source organism: Dengue virus 4 Dominica/814669/1981): 37.4 nM; Kd [8]: 17000 nM
SIQDNQVAY	–	–	–	Kd [9]: 19700 nM
SLFSLLPGV	–	–	–	Kd ([10]; source organism: Amur virus): ≤ 1 nM; Kd [11]: ≤ 1 nM
SVDVDIYDA	1200	11900	953	–
SVIEKMETL	–	–	–	Kd [12, 21]: 152 nM
TIAVSVYGA	25.4	9.89	98.7	–
TLPELNLSL	135	22.6	802	–
TMKHKKATY	–	–	–	Kd [1, 21]: 83.4 nM; Kd [5, 21]: 1200 nM
TMRHKKATY	–	–	–	Kd [1, 22]: 442 nM; Kd [5, 22]: ≥ 76900 nM
TMSIYIAVA	80.9	40.8	786	–
TNAEFTFQL	–	–	–	Kd [2, 23]: 404 nM; Kd [3, 23]: 15000 nM; Kd [4, 23]: 3620 nM
TPVHSWEDI	–	–	–	Kd ([13]; source organism: Dengue virus 4 Philippines/H241/1956): 16000 nM; Kd [14]: 2220 nM

Sequence	Kd [2, 19] [nM]	Kd [3, 19] [nM]	Kd [4, 19] [nM]	also measured
TQVKELGIAI	2170	704	3.87	–
TSIGLLCVM	–	–	–	Kd [12, 20]: 2450 nM
TTLPSQNST	–	–	–	IC50 [7]: ≥ 206000 nM
TVITPMMRH	–	–	–	Kd [12, 24]: 1700 nM
TWAKNIQTAI	–	–	–	Kd [15, 21]: 512 nM
VGMGEAAAIF	–	–	–	Kd [15, 24]: 8640 nM
VIIHVIEHL	–	–	–	Kd [1, 19]: 1190 nM
VLIAGIILLI	–	–	–	Kd [2, 25]: 8.84 nM; Kd [3, 25]: 34.6 nM; Kd [4, 25]: 1020 nM
VLTSVDIETA	62.4	421	1410	–
VMATEEPTT	–	–	–	IC50 [7]: ≥ 144000 nM
VMYAFTTPLI	0.718	4.82	11.6	–
VPLAGPLIA	–	–	–	Kd [13, 24]: 14800 nM
VPLQWIASAI	–	–	–	Kd ([13]; source organism: Dengue virus 3 Sri Lanka/1266/2000): 21.7 nM
VQYRILPMII	10100	606	395	–
VVIVENDNVI	14700	10200	10700	–
WISDNTHIYL	0.143	1.16	1.77	–
WPLNEAIMAV	–	–	–	Kd [13, 21]: 470 nM
WYGMEIRPI	–	–	–	Kd [15, 18]: 3020 nM
YASALVLLI	–	–	–	Kd [2, 26]: 3.2 nM; Kd [3, 26]: 4.87 nM; Kd [4, 26]: 8.7 nM
YFIKHVLAF	–	–	–	Kd [1, 19]: 2.53 nM
YLAGAGLLF	–	–	–	Kd [1, 21]: 1.86 nM; Kd [15, 21]: 28.5 nM; Kd [12, 21]: 2130 nM
YLGPTIRVW	–	–	–	Kd [16]: 1220 nM; Kd [10, 27]: 1870 nM; Kd [17]: 127 nM; Kd [6, 27]: 13200 nM
YLLFNHFSV	1.24	1.59	0.725	–
